Assay results from the Human Domainome abundance scans (Beltran et al. 2025).
± gives the uncertainty stated by the source.

B1: Gamma-crystallin C, residues 91 to 170; numbered along this chain, P07315 (parent)
chain: RLYEREDHKGLMMELSEDCPSIQDRFHLSEIRSLHVLEGCWVLYELPNYRGRQYLLRPQEYRRCQDWGAMDAKAGSLRRV

Variants of: B1
Test: abundance fitness (aPCA) (normalised: wild type 0, dead -1); higher = more abundant; growth selection in yeast, the domain comes from the species named
Details: Homo sapiens
Variant I31S has an abundance fitness of -0.665 ± 0.16.
I31R showed an abundance fitness of -0.776 ± 0.15.
In the case of I31T, the abundance fitness is reported as -0.789 ± 0.14.
In the case of E38K, the abundance fitness is reported as -0.083 ± 0.12.
With E38G the abundance fitness was -0.186 ± 0.044.
Work on E38H yielded an abundance fitness of -0.119 ± 0.13.
In the case of E38Q, the abundance fitness is reported as 0.171 ± 0.13.
Work on E38A yielded an abundance fitness of -0.059 ± 0.069.
E38P showed an abundance fitness of -0.642 ± 0.12.
For D71A, the abundance fitness was -0.483 ± 0.19.
In the case of D71S, the abundance fitness is reported as -0.015 ± 0.057.
D71E gave an abundance fitness of -0.185 ± 0.11.
In the case of D71K, the abundance fitness is reported as -0.126 ± 0.078.
Work on D71C yielded an abundance fitness of -0.029 ± 0.11.
In the case of D71N, the abundance fitness is reported as -0.173 ± 0.18.
Work on D71R yielded an abundance fitness of -0.224 ± 0.066.
Variant E60Y has an abundance fitness of -0.069 ± 0.14.
E60H gave an abundance fitness of -0.174 ± 0.095.
E60M showed an abundance fitness of -0.162 ± 0.13.
In the case of I22T, the abundance fitness is reported as -0.649 ± 0.2.
With I22G the abundance fitness was -0.921 ± 0.15.
With I22V the abundance fitness was -0.149 ± 0.07.
For I22P, the abundance fitness was -0.978 ± 0.41.
In the case of I22A, the abundance fitness is reported as -0.784 ± 0.3.
I22F showed an abundance fitness of -0.47 ± 0.31.
With Q65M the abundance fitness was -0.283 ± 0.12.
With Q65V the abundance fitness was 0.071 ± 0.11.
With Q65A the abundance fitness was -0.075 ± 0.049.
With Q65P the abundance fitness was -0.687 ± 0.089.
Work on Q65G yielded an abundance fitness of -0.08 ± 0.1.
For Q65H, the abundance fitness was -0.242 ± 0.2.
For Q65D, the abundance fitness was -0.355 ± 0.2.
Variant H27V has an abundance fitness of -0.602 ± 0.093.
In the case of H27A, the abundance fitness is reported as -0.069 ± 0.06.
For H27M, the abundance fitness was -0.075 ± 0.094.
Variant H27N has an abundance fitness of 0.075 ± 0.1.
In the case of H27E, the abundance fitness is reported as -0.119 ± 0.062.
H27G gave an abundance fitness of 0.047 ± 0.037.
Variant P58V has an abundance fitness of -0.378 ± 0.12.
With P58C the abundance fitness was -0.334 ± 0.12.
For P58K, the abundance fitness was -0.15 ± 0.3.
In the case of P58A, the abundance fitness is reported as -0.167 ± 0.11.
Variant P58L has an abundance fitness of -0.98 ± 0.19.
For P58F, the abundance fitness was -0.882 ± 0.42.
For S76P, the abundance fitness was -0.776 ± 0.19.
In the case of R5A, the abundance fitness is reported as -0.309 ± 0.16.
With R5W the abundance fitness was -0.203 ± 0.092.
M70D showed an abundance fitness of 0.094 ± 0.14.
M70C showed an abundance fitness of -0.217 ± 0.25.
Variant C40G has an abundance fitness of -0.186 ± 0.051.
C40D gave an abundance fitness of 0.058 ± 0.086.
C40Y gave an abundance fitness of -0.284 ± 0.091.
D24Q gave an abundance fitness of -0.213 ± 0.12.
D24V gave an abundance fitness of -0.396 ± 0.067.
D24T showed an abundance fitness of -0.202 ± 0.18.
For D24A, the abundance fitness was -0.008 ± 0.063.
D24L showed an abundance fitness of -0.31 ± 0.067.
In the case of D24C, the abundance fitness is reported as -0.274 ± 0.1.
Work on D24P yielded an abundance fitness of -0.951 ± 0.5.
For D24G, the abundance fitness was -0.167 ± 0.043.
Work on D24E yielded an abundance fitness of 0.045 ± 0.073.
In the case of D24Y, the abundance fitness is reported as -0.35 ± 0.098.
Variant R1S has an abundance fitness of -0.936 ± 0.17.
Variant R32A has an abundance fitness of -0.302 ± 0.071.
Variant R32Q has an abundance fitness of -0.279 ± 0.089.
R32P showed an abundance fitness of -0.146 ± 0.087.
Work on R32E yielded an abundance fitness of -0.478 ± 0.18.
Variant P47T has an abundance fitness of -0.449 ± 0.34.
Variant E4A has an abundance fitness of -0.129 ± 0.063.
For E4L, the abundance fitness was -0.339 ± 0.083.
Work on E4N yielded an abundance fitness of -0.261 ± 0.12.
Variant E4R has an abundance fitness of -0.582 ± 0.1.
With E4S the abundance fitness was -0.027 ± 0.057.
In the case of E4G, the abundance fitness is reported as -0.348 ± 0.063.
S33M showed an abundance fitness of -0.673 ± 0.32.
With S33Y the abundance fitness was -0.424 ± 0.24.
S33L gave an abundance fitness of -0.865 ± 0.15.
With S33I the abundance fitness was -0.492 ± 0.32.
S33K gave an abundance fitness of -0.957 ± 0.5.
S33T gave an abundance fitness of -1.04 ± 0.26.
Variant L46N has an abundance fitness of -0.767 ± 0.46.
Work on L46F yielded an abundance fitness of 0.047 ± 0.095.
L46W showed an abundance fitness of -0.237 ± 0.12.
With V80I the abundance fitness was -0.341 ± 0.21.
L15G showed an abundance fitness of -1.03 ± 0.23.
In the case of Q59C, the abundance fitness is reported as -0.052 ± 0.12.
In the case of Q59P, the abundance fitness is reported as -0.994 ± 0.23.
In the case of Q59L, the abundance fitness is reported as -0.438 ± 0.078.
Q59D showed an abundance fitness of -0.217 ± 0.3.
For Q59R, the abundance fitness was -0.047 ± 0.062.
Q59G gave an abundance fitness of 0.02 ± 0.055.
Q59E showed an abundance fitness of -0.354 ± 0.19.
In the case of Q59W, the abundance fitness is reported as -0.486 ± 0.073.
With L11S the abundance fitness was -0.089 ± 0.051.
With L11R the abundance fitness was -0.031 ± 0.049.
In the case of L11T, the abundance fitness is reported as -0.049 ± 0.082.
For L11E, the abundance fitness was 0 ± 0.11.
Work on L11M yielded an abundance fitness of -0.017 ± 0.089.
For Y49V, the abundance fitness was -0.969 ± 0.5.
Variant Y49E has an abundance fitness of -0.734 ± 0.29.
With Y49A the abundance fitness was -1.04 ± 0.23.
K9F showed an abundance fitness of -0.559 ± 0.25.
Variant K9H has an abundance fitness of -0.174 ± 0.11.
Variant K9C has an abundance fitness of -0.103 ± 0.11.
Work on K9I yielded an abundance fitness of -0.68 ± 0.17.
For K9N, the abundance fitness was -0.085 ± 0.14.
In the case of K9S, the abundance fitness is reported as -0.241 ± 0.087.
In the case of K9V, the abundance fitness is reported as -0.402 ± 0.068.
With L28V the abundance fitness was -0.035 ± 0.054.
Variant L28I has an abundance fitness of 0.093 ± 0.15.
L28N showed an abundance fitness of -0.697 ± 0.23.
For L28M, the abundance fitness was -0.038 ± 0.099.
Variant L28G has an abundance fitness of -0.364 ± 0.061.
Variant G75Q has an abundance fitness of -0.746 ± 0.21.
For G75W, the abundance fitness was -0.989 ± 0.26.
In the case of G75S, the abundance fitness is reported as -0.479 ± 0.12.
In the case of Y44G, the abundance fitness is reported as -0.608 ± 0.073.
Work on Y44R yielded an abundance fitness of -0.478 ± 0.09.
With Y44S the abundance fitness was -0.568 ± 0.078.
E30P gave an abundance fitness of -1.17 ± 0.34.
For E30D, the abundance fitness was -0.424 ± 0.11.
For E30L, the abundance fitness was -0.368 ± 0.043.
G10V gave an abundance fitness of -0.821 ± 0.11.
G10P showed an abundance fitness of -0.951 ± 0.35.
For G10S, the abundance fitness was -0.923 ± 0.15.
With G10C the abundance fitness was -0.905 ± 0.22.
G10A gave an abundance fitness of -0.976 ± 0.12.
For G10F, the abundance fitness was -0.717 ± 0.17.
In the case of G10H, the abundance fitness is reported as -0.818 ± 0.19.
M13G showed an abundance fitness of -0.07 ± 0.052.
M13W gave an abundance fitness of -0.018 ± 0.074.
Work on M13L yielded an abundance fitness of -0.078 ± 0.065.
M13I showed an abundance fitness of -0.148 ± 0.091.
In the case of M13Y, the abundance fitness is reported as -0.112 ± 0.15.
Work on M13A yielded an abundance fitness of -0.085 ± 0.056.
Work on M13P yielded an abundance fitness of -1 ± 0.49.
Work on A69L yielded an abundance fitness of -0.935 ± 0.26.
A69C showed an abundance fitness of -0.621 ± 0.46.
A69D gave an abundance fitness of -0.701 ± 0.42.
A69M gave an abundance fitness of -0.847 ± 0.15.
In the case of A69P, the abundance fitness is reported as -0.968 ± 0.29.
A69S gave an abundance fitness of -0.074 ± 0.074.
In the case of N48E, the abundance fitness is reported as -0.314 ± 0.096.
In the case of N48D, the abundance fitness is reported as -0.007 ± 0.13.
N48W gave an abundance fitness of -0.151 ± 0.045.
In the case of N48R, the abundance fitness is reported as -0.234 ± 0.053.
For E6M, the abundance fitness was -0.698 ± 0.48.
In the case of E6D, the abundance fitness is reported as -0.538 ± 0.19.
In the case of E6W, the abundance fitness is reported as -0.718 ± 0.15.
Work on E6Y yielded an abundance fitness of -0.64 ± 0.41.
Variant S21T has an abundance fitness of -0.456 ± 0.11.
With S21N the abundance fitness was 0.053 ± 0.2.
For S21V, the abundance fitness was -0.56 ± 0.057.
In the case of S21G, the abundance fitness is reported as -0.613 ± 0.065.
L43T gave an abundance fitness of -0.674 ± 0.27.
With L43V the abundance fitness was -0.81 ± 0.12.
Work on L43Q yielded an abundance fitness of -0.606 ± 0.22.
Work on L43M yielded an abundance fitness of -0.099 ± 0.14.
L43G showed an abundance fitness of -0.721 ± 0.071.
Variant L43F has an abundance fitness of -0.645 ± 0.19.
S29M gave an abundance fitness of -0.408 ± 0.16.
S29T gave an abundance fitness of -0.012 ± 0.089.
With S29D the abundance fitness was -0.073 ± 0.15.
S29N showed an abundance fitness of -0.003 ± 0.13.
S29Q showed an abundance fitness of -0.086 ± 0.085.
Work on S29F yielded an abundance fitness of -0.318 ± 0.11.
In the case of S29G, the abundance fitness is reported as -0.118 ± 0.069.
